Measured values from publication PMC9563011.

Target: IL-2Rα Fc tag (UniProt P01589)
Chain of UniProt P01589 (P01589 22-240): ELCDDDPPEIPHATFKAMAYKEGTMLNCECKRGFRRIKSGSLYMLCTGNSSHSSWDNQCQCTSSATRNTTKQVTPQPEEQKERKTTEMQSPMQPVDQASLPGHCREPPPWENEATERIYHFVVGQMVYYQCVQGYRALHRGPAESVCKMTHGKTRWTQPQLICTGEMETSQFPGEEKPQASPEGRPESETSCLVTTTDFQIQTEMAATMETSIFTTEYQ

- EC50 of CTLL-2 cell proliferation (CellTiter-Glo, 48 h, 50 to 0.002 ng/mL): 0.014 µg/mL
Substance: IL-2K35C (from UniProt P60568 22-153) (ligand)
